According to US20250340630A1 (SICHUAN KELUN BIOTECH BIOPHARMACEUTICAL, published 2025):
Read-outs that look alike come from different tables or passages of the source.

How the values were obtained:
[1] = target: T1, human Claudin18.2 (human, UniProt P56856-2 1-261); experiment: cell-based or functional assay
[2] = target: T1, human Claudin18.2; experiment: cellular ELISA on NUGC-4 cells (endogenous human Claudin18.2)
Procedure: (§1) The cells were resuspended and adjusted to 2×10⁵/mL and 100 μL of the resuspension was plated into 96 well plate and incubated overnight at 37° C. The next day, the media was removed, and the plate was washed with PBS once. 100 μL/well 4% formaldehyde was added to the plate. After 30 min of incubation at room temperature, formaldehyde was removed, followed by washing twice with PBS. Blocking buffer (PBS containing 2% BSA) was then added to the plate at 100 μL/well, and incubated at 37° C. for 2 h. After removal of blocking buffer, 100 μL/well of serially diluted antibodies (starting from 1 μM, with 4-fold dilution, for a total of 11 concentrations) were added to the corresponding wells, which were incubated at 37° C. for 2h afterwards. The plate was washed with 250 μL PBST for 5 times, and was allowed to stand for 2 min each time. […] The plate was incubated at 37° C. for 1 h and washed with 250 μL PBST 6 times, wherein the plate was allowed to stand for 2 min each time. 100 μL/well of TMB solution (Thermo, 34029) was added. The reactions were incubated at 37° C. for 20 min and stopped with 50 μL 2 mol/L H₂SO₄. The absorbance at 450 nm was read on a plate reader (MD, SpectraMax M2) and the results were subjected to curve fitting by Graphpad Prism.

[3] = target: T1, human Claudin18.2; experiment: cellular ELISA on fixed L929-Claudin 18.2 cells
Procedure: as §1, with “Human Claudin18.2 is a four transmembrane protein and has a complex structure. Cellular ELISA was thus carried out to maintain the structure of Claudin18.2. […] The cells” for “The cells”, “was added. […] The absorbance” for “was added. The reactions were incubated at 37° C. for 20 min and stopped with 50 μL 2 mol/L H₂SO₄. The absorbance”

[4] = target: T1, human Claudin18.2; experiment: cellular ELISA on fixed L929-Claudin 18.2 cells; remark: listed apart in the source
Procedure: as §1, with “Human Claudin18.2 is a four transmembrane protein and has a complex structure. Cellular ELISA was thus carried out to maintain the structure of Claudin18.2. […] The cells” for “The cells”

[5] = target: T2, human Claudin18.1 (human, UniProt P56856 1-261); experiment: flow cytometry, HEK293T-human Claudin 18.1 cells compared with HEK293T cells
T2 construct: whole, on cells; Presented on transfected cells; also called CLDN18.1
Procedure: The specificity of candidate antibodies was detected by FACS. […] After washing twice with PBS, the cells were resuspended with PBS containing 1% BSA. 300,000 cells for each cell line were added with the candidate antibodies at a final concentration of 1000 nM, mixed well, and incubated for 1 h at 4° C., protected from light. Then the cells were washed for three times with PBS and FITC-labeled anti-human Fc secondary antibody (BioLegend, 409322) was added, followed by 0.5h of incubation at 4° C. in the dark. Detection was performed by flow cytometry (Beckman, Cytoflex) after washing with PBS for three times.

[6] = target: T1, human Claudin18.2; experiment: cell-based or functional assay; remark: listed apart in the source
[7] = target: T1, human Claudin18.2; experiment: cell-based or functional assay; remark: listed apart in the source
[8] = target: T1, human Claudin18.2; experiment: flow cytometry (IntelliCyt) on Ba/F3-Claudin18.2 cells
Text: In order to evaluate the anti-Claudin18.2 humanized antibodies, codon optimized cDNAs of the heavy chains and the light chains of the candidate humanized antibodies from Example 6 were synthesized and ligated into pcDNA3.4 (by Nanjing Genscript Biotech Corporation). Expi293F cells (purchased from Thermo Incorporation) were co-transfected with pcDNA3.4 coding the heavy chain and light chain of each antibody. The antibodies were purified from the supernatant using protein A (MabSelect SuRe, GE). The affinity of the humanized antibodies to Claudin18.2 was determined using Ba/F3-Claudin18.2 cells which over-expressed human Claudin18.2. Ba/F3-Claudin18.2 cells (60000 in 10 ul buffer) were incubated with purified humanized antibodies on ice for 30 min, followed by washing with buffer (PBS+2% FBS) twice and addition of Alexa647-labeled goat-anti-human IgG Fc antibody (1:500 dilution). The cells were incubated on ice for another 30 min and analyzed by IntelliCyt.

[9] = target: T1, human Claudin18.2; experiment: cellular ELISA on fixed L929-Claudin 18.2 cells; remark: listed apart in the source
Procedure: as §1, with “Human Claudin18.2 is a four transmembrane protein and has a complex structure. Cellular ELISA was thus carried out to maintain the structure of Claudin18.2. […] The cells” for “The cells”, “was added. […] The absorbance” for “was added. The reactions were incubated at 37° C. for 20 min and stopped with 50 μL 2 mol/L H₂SO₄. The absorbance”

[10] = target: T1, human Claudin18.2; experiment: cell-based or functional assay; remark: listed apart in the source
[11] = target: T1, human Claudin18.2; experiment: cell-based or functional assay; remark: listed apart in the source
[12] = target: T1, human Claudin18.2; experiment: flow cytometry on HEK293T-Claudin 18.2 cells
Procedure: HEK293T-Claudin 18.2 cells were detached and centrifuged, followed by washing for twice with PBS. And then the cells were resuspended in PBS containing 1% BSA and were plated into 96-well tip bottom plate at 300000 cells per well in a volume of 50 μl for 20 wells in total. […] Human IgG was served as negative control. The reactions were mixed well and incubated for 1 h at 4° C. in the dark. Following by three times of washing with PBS, the FITC-labelled anti-human Fc secondary antibody (Biolegend, 409322) was added and incubated for 0.5h in the dark. Detection was performed by flow cytometry (Beckman, Cytoflex) after washing for three times with PBS.

[13] = target: T1, human Claudin18.2; experiment: flow cytometry on Ba/F3-Claudin18.2 cells
[14] = target: T2, human Claudin18.1; experiment: FACS titration on Ba/F3-Claudin 18.1 cells
Procedure: (§2) The affinity of the candidates to Claudin18.2 was measured using FACS. […] Ba/F3-Claudin18.1 and Ba/F3-Claudin18.2 cells were incubated with the purified mouse antibodies at various concentrations on ice for 30 min and mouse IgG was used as negative control (Thermo Fisher, Cat: 31903), followed by washing with FACS buffer (PBS+2% FBS) twice.

[15] = target: T1, human Claudin18.2; experiment: flow cytometry on Ba/F3-Claudin18.2 cells, purified mouse antibody
Procedure: as §2

B1: humanized antibody 1E9.2-hz11 (antibody, human IgG1, kappa, V domains shown)
VH: EVQLVESGGGLVKPGGSLRLSCAASGFSFSNSAMSWVRQAPGKGLEWVSTISSGDSYTYYADSVKGRFTISRDNAKNSLYLQMNSLRAEDTAVYYCARQGYGNALDYWGQGTLVTVSS
VL: DIVMTQSPDSLAVSLGERATINCKSSQSLLNSGNQKNYLTWYQQKPGQPPKLLIYWSSTRESGVPDRFSGSGSGTDFTLTISSLQAEDFAVYYCQNDYYYPLTFGGGTKVEIKR
notes: human IgG1 / kappa
With B1 the “CDC activity on HEK293T-Claudin 18.2 cells, fold against IMAB362” value [1] was 3.5 fold, the EC50 [2] was 0.413 nM and the EC50 [3] was 0.1 nM. The EC50 [4] was 0.09 nM, the “Max Signal Value (OD450)” value [4] was 0.8 OD450 and the binding result [5] was “no binding (tested: 1000 nM)”. For the same binder, the “ADCC EC50, Ba/F3-Claudin18.2 target cells, NK-92MI_mCD16 effectors” value [6] was 0.041 µg/mL, the “ADCC Max killing rate %, Ba/F3-Claudin18.2 target cells” value [6] was 60.2% and the “ADCC EC50 on HEK293T-Claudin 18.2 cells (NK92MI-CD16a, LDH)” value (from here on “ADCC EC50 on HEK293T-Claudin 18.2 cells”) [7] was 0.0528 µg/mL. For the same binder, the “ADCC EC50 on KATOIII-Claudin 18.2 cells (NK92MI-CD16a, LDH)” value [7] was 0.00359 µg/mL, the “ADCC EC50 on L929-Claudin 18.2 cells (NK92MI-CD16a, LDH)” value [7] was 0.00239 µg/mL and the “ADCC EC50 on NUGC-4 cells (NK92MI-CD16a, LDH)” value [7] was 0.134 µg/mL. For the same binder, the “Max MFI” value [8] was 1.13e+07 MFI.

B2: humanized antibody 2C6.9-hz21 (antibody, human IgG1, kappa, V domains shown)
VH: QVQLQESGPGLVKPSETLSLTCTVSGFSLTRYGVSWIRQPPGKGLEWIGVIWGEGNTNYNPSLKSRVTISKDSSKSQVSLKLSSVTAADTAVYYCARVNFGNALDYWGQGTLVTVSS
VL: DIVMTQSPDSLAVSLGERATINCKSSQSLLNSGNQKNYLTWYQQKPGQPPKLLIYWASTRDSGVPDRFSGSGSGTDFTLTISSLQAEDVAVYYCQNDFIFPLTFGGGTKVEIKR
notes: human IgG1 / kappa; also called 2C6.9.2hz21
For B2, the EC50 [9] was 0.12 nM, the “ADCC EC50 on HEK293T-Claudin 18.2 cells” value [10] was 0.0677 µg/mL and the “CDC EC50 on HEK293T-Claudin 18.2 cells (guinea pig serum, CellTiter-Glo)” value [11] was 1.36 µg/mL. For the same binder, the EC50 [4] was 0.18 nM, the “Max Signal Value (OD450)” value [4] was 0.8 OD450 and the binding result [5] was “no binding (tested: 1000 nM)”. The EC50 [12] was 5.77 nM.

B3: humanized antibody 2C6.9-hz11 (antibody, human IgG1, kappa, V domains shown)
VH: QVQLQESGPGLVKPSETLSLTCTVSGFSLTRYGVSWIRQPPGKGLEWIGVIWGDGNTNYNPSLKSRVTISKDSSKSQVSLKLSSVTAADTAVYYCARVNFGNALDYWGQGTLVTVSS
VL: DIVMTQSPDSLAVSLGERATINCKSSQSLLNSGNQKNYLTWYQQKPGQPPKLLIYWASTRDSGVPDRFSGSGSGTDFTLTISSLQAEDVAVYYCQNDFIFPLTFGGGTKVEIKR
notes: Human IgG1 / kappa constant regions; also called 2C6.9.2hz11
With B3 the EC50 [4] was 0.16 nM and the “Max Signal Value (OD450)” value [4] was 0.8 OD450.

B4: IMAB362 (antibody, V domains shown)
VH: QVQLQQPGAELVRPGASVKLSCKASGYTFTSYWINWVKQRPGQGLEWIGNIYPSDSYTNYNQKFKDKATLTVDKSSSTAYMQLSSPTSEDSAVYYCTRSWRGNSFDYWGQGTTLTVSS
VL: DIVMTQSPSSLTVTAGEKVTMSCKSSQSLLNSGNQKNYLTWYQQKPGQPPKLLIYWASTRESGVPDRFTGSGSGTDFTLTISSVQAEDLAVYYCQNDYSYPFTFGSGTKLEIKR
With B4 the EC50 [9] was 0.15 nM, the “ADCC EC50 on HEK293T-Claudin 18.2 cells” value [10] was 0.0577 µg/mL and the “CDC EC50 on HEK293T-Claudin 18.2 cells (guinea pig serum, CellTiter-Glo)” value [11] was 3.32 µg/mL. The EC50 [2] was ~664 nM, the EC50 [3] was 0.18 nM and the EC50 [13] was 18 nM. The EC50 [12] was 8.22 nM, the “ADCC EC50, Ba/F3-Claudin18.2 target cells, NK-92MI_mCD16 effectors” value [6] was 0.351 µg/mL and the “ADCC Max killing rate %, Ba/F3-Claudin18.2 target cells” value [6] was 54.2%. For the same binder, the “ADCC EC50 on HEK293T-Claudin 18.2 cells” value [7] was 0.0336 µg/mL, the “ADCC EC50 on KATOIII-Claudin 18.2 cells (NK92MI-CD16a, LDH)” value [7] was 0.0101 µg/mL and the “ADCC EC50 on L929-Claudin 18.2 cells (NK92MI-CD16a, LDH)” value [7] was 0.0781 µg/mL. The “ADCC EC50 on NUGC-4 cells (NK92MI-CD16a, LDH)” value [7] was 1.22 µg/mL.

B5: mouse antibody 19H11.6 (antibody, V domains shown)
VH: EVMLVESGGGLVKPGGSLKLSCAASGFSFSNSAMSWVRQTPEKRLEGVATISSGDSFTYYPDTVKGRFTISRDNAKNSLYLQMSRLRSEDTAVYYCARQGYGNALDYWGQGTSVTVSS
VL: DIVMTQSPSSLTVTAGEKVTMTCKSSQSLLNSGNQKNYLTWYQQKPGQPPKLLIYWSSTRESGVPDRFTGSGSGTDFTLTISSVQAEDLAVYYCQNDYYYPLTFGAGTKLELK
notes: Purified from hybridoma
B5 was tested, and the binding result [14] was “no binding (tested: about 50 nM)”, the EC50 [15] was 10.9 nM and the “Max MFI” value [15] was 6.01e+06 MFI.

B6: mouse antibody 9C8.1 (antibody, V domains shown)
VH: QVQLQQSGAELVRPGSSVKISCKASGYAFSNYWMNWVKQRPGQGLEWIGQIYPGDGDTNYNGKFKGKATLTTDKSSSTAYMQLSSLTSEDSAVYFCARLYYGNSFAYWGQGTLVTVSS
VL: DIVMTQSPSSLTVTAGEKVTVSCKSSQSLLNSGNQKNYLTWYQQKPGQPPKLLIYWASTRESGVPDRFTGSGSGTDFTLTISSVQAADLAIYYCQNDYFYPFTFGGGTKLEIK
notes: Purified from hybridoma
B6 was tested, and the binding result [14] was “no binding (tested: about 50 nM)”, the EC50 [15] was 9.4 nM and the “Max MFI” value [15] was 4.97e+06 MFI.

B7: mouse antibody 6B9.22 (antibody, V domains shown)
VH: QVQLQQSGAELVKPGASVKMSCKAFGYTFTSYPIEWMKQNHGKSLEWIGNFHPYNDDTKYNEKFKGKAKLTVEKSSSTVYLELSRLTSDDSAVYYCARTYYGNSFAYWGQGTLVTVSS
VL: DIVMTQSPSSLTVTAGEKVTMSCKSSQSLLNSGNQKNYLTWYQQKPGQPPKLLIYWASSRDSGVPHRFTGSGSGTDFTLTISSVQAEDLAFYYCQNDYFYPFTFGAGTKLELK
notes: Purified from hybridoma
In the case of B7, the binding result [14] is reported as “no binding (tested: about 50 nM)”, the EC50 [15] is reported as 3.64 nM and the “Max MFI” value [15] is reported as 3.62e+06 MFI.
